What all share (experiment): SPR
Background: SPR reads the build-up and loss of mass on a sensor chip optically.

Assay [1] addresses T1, human CD25-extracellular domain (CD25-ECD) (UniProt P01589 22-240).
T1 chain: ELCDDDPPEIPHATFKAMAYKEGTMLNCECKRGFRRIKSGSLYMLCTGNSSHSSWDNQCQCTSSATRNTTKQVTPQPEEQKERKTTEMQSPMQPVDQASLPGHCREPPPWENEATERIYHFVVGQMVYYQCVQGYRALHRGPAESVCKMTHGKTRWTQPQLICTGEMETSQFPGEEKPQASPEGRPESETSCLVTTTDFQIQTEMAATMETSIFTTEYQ

For assay [2], the target named is T1, human CD25-extracellular domain ….
The target is the same in assay [3].
In assay [4] the target is cynomolgus CD25.
Assay [5] addresses cCD25.
Assay [6] has as its target 83B05Hu1_A.
Assay [7] concerns the target T1, human CD25-extracellular domain ….
For assay [8] the target is unchanged.
In assay [9] the target is cynomolgus CD25. This is another data set of the same source.
Assay [10] concerns the target cynomolgus CD25. This is another data set of the same source.
For assay [11], the target named is T1, human CD25-extracellular domain ….
The target of assay [12] is cynomolgus CD25. The source holds these as a separate data set.
Assay [13] concerns the target T1, human CD25-extracellular domain ….
Assay [14] has the same target.
For assay [15] the target is unchanged.
For assay [16], the target named is cynomolgus CD25. The source holds these as a separate data set.
The target of assay [17] is T1, human CD25-extracellular domain ….

Here are results for 13 molecules from patent publication US20260258143A1 (published 2026).

Read-outs that look alike come from different tables or passages of the source.

B1: ODY-N2003Hu1 (antibody, V domains shown)
VH: EVQLVESGGGLVQPGGSLRLSCAASGRKFSTLIMAWYRQAPGKQRELVATIDRDGTTTYADSVKGRFTISRDNAKNTVYLQMNSLRPEDTAVYYCSTLRYWGQGTQVTVSS
B1 showed a Kd in [1] of 7.6 nM.

B2: ODY-N2002Hu1 (antibody, V domains shown)
VH: EVQLVESGGGLVQPGGSLRLSCAVSGRSFSTLIMAWYRQAPGKQRELVATIDRGGTTTYADSVKGRFTISRDNAKNTVYLQMNSLRPEDTAVYYCKTLRYWGQGTQVTVSS
With B2, the Kd in assay [1] was 17 nM.

B3: humanized anti-CD25 V-body 47D3 (VHH)
VHH: EVQLLESGGGLVQPGGSLRVSCAASGRTFSWNGMGWFRQAPGKEREFVAAISQSGGRTRYADSVKGRFTISRDNAKNTVYLQMNSLRPEDTAVYYCAASDFLLATTISAYDYWGQGTQVTVSS
For B3, the Kd in assay [2] and in assay [3] was 1.6 nM each time.

B4: 47D3 (VHH)
VHH: EVQLLESGGGLVQPGGSLRVSCAASGRTFSWNGMGWFRQAPGKEREFVAAISQSGGRTRYADSVKGRFTISRDNAKNTVYLQMNSLRPEDTAVYYCAASDFLLATTISAYDYWGQGTQVTVSS
As to B4, the Kd in assay [4] and in [5] was 49 nM in each case.

B5: human CD25 (receptor)
chain: ELCDDDPPEIPHATFKAMAYKEGTMLNCECKRGFRRIKSGSLYMLCTGNSSHSSWDNQCQCTSSATRNTTKQVTPQPEEQKERKTTEMQSPMQPVDQASLPGHCREPPPWENEATERIYHFVVGQMVYYQCVQGYRALHRGPAESVCKMTHGKTRWTQPQLICTGEMETSQFPGEEKPQASPEGRPESETSCLVTTTDFQIQTEMAATMETSIFTTEYQ
Turning to B5, the Kd in assay [6] was determined as 76 nM.

B6: humanized anti-CD25 V-body 46A3 (VHH)
VHH: EVQLLESGGGLAQPGGSLRLSCAASGFTFSNYAMSWARQAPGKGLEWVSGIYSDGSGTYYADSVKGRFTISRDNAKNTVYLQMNSLRPEDTAVYYCAKGRNSGSYYPWDDYWGQGTQVTVSS
In the case of B6, the Kd in assay [2] and in [7] was 49 nM in each case.

B7: ODY-N1813Hu1 (antibody, V domains shown)
VH: EVQLLESGGGLAQPGGSLRLSCAASGFTFSNYAMSWARQAPGKGLEWVSGIYSDSSGTYYADSVKGRFTISRDNAKNTVYLQMNSLRPEDTAVYYCAKGRGSGSYYPFEDYWGQGTQVTVSS
In the case of B7, the affinity in [8], expressed as Kd, was 50 nM.

B8: ODY-46A3 (VHH)
VHH: EVQLLESGGGLAQPGGSLRLSCAASGFTFSNYAMSWARQAPGKGLEWVSGIYSDGSGTYYADSVKGRFTISRDNAKNTVYLQMNSLRPEDTAVYYCAKGRNSGSYYPWDDYWGQGTQVTVSS
B8 showed a Kd in assay [9] of 34 nM.

B9: ODY-83B03Hu1 (VHH)
VHH: EVQLVESGGGLVQPGGSLRLSCAASGMPLVAMGWYRQAPGKQRELVASISSGGNTGYADSVKGRFTISRDNAKKTVYLQMNSVRPEDTGVYYCNIYRSQVPPTRYSWGQGTQVTVSS
Turning to B9, the Kd is 112 nM in assay [10] and 21 nM in [11].

B10: ODY-83B05Hu1 (VHH)
VHH: EVQLLESGGGLVQPGGSLRLSCAASGFTLDYYAIGWFRQAPGKEREGVLSISSTDGRTYYADSVKGRFTISRDNPKNTVYLQLNSLRPEDTAVYYCAAKRLGPMVHRYSLEVLTPLFLDEYDYWGQGTQVTVSS
Take B10: the results for the Kd in [12] and in assay [13] were 97 nM and 35 nM, respectively.

B11: 83F07Hu1_L (antibody, V domains shown)
VH: EVQLLESGGGLVQPGGSLRLSCAASGFTLDYYAIGWFRQAPGKEREGVLSISSTDGRTYYADSVKGRFTISRDNPKNTVYLQLNSLRPEDTAVYYCAAKRLGPLVHQYSLEVLTPLFLDEYDYWGQGTQVTVSS
The molecule B11 registered a Kd in assay [14] of 97 nM.

B12: 83B05Hu1_L (antibody, V domains shown)
VH: EVQLLESGGGLVQPGGSLRLSCAASGFTLDYYAIGWFRQAPGKEREGVLSISSTDGRTYYADSVKGRFTISRDNPKNTVYLQLNSLRPEDTAVYYCAAKRLGPLVHRYSLEVLTPLFLDEYDYWGQGTQVTVSS
B12 registered a Kd in assay [15] of 61 nM. That is a double-digit nanomolar value.

B13: ODY-83F07Hu1 (VHH)
VHH: EVQLLESGGGLVQPGGSLRLSCAASGFTLDYYAIGWFRQAPGKEREGVLSISSTDGRTYYADSVKGRFTISRDNPKNTVYLQLNSLRPEDTAVYYCAAKRLGPMVHQYSLEVLTPLFLDEYDYWGQGTQVTVSS
Turning to B13, the figures for the Kd in assay [16] and in assay [17] were 97 nM and 58 nM, respectively.

One may read the Kd as the concentration at which binding is half-saturated.
